In patent publication CN110590951A (ANMENGDE MEDICAL TECH SHANGHAI CO LTD, dated 2019):

Key:
[1] = molecular target: T1, 重组鼠ROR1蛋白 (recombinant mouse ROR1 protein, ACROBiosystems RO1-M5221) (mouse, UniProt Q9Z139 30-403); experiment: ELISA, recombinant mouse ROR1 coated at 1 μg/mL, G3 titrated from 15 μg/ml
T1 construct: Bought protein

[2] = molecular target: T2, 人ROR1 on the cell surface (endogenous on JeKo-1 cells; overexpressed on CHO-K1-hROR1 cells) (human, UniProt Q01973 30-937); experiment: Flow cytometry on JeKo-1 cells (endogenous ROR1), G3 titrated from 20 μg/mL
T2 construct: whole, on cells; also called JeKo-1细胞ROR1蛋白; CHO-K1-hROR1细胞表面的ROR1

[3] = molecular target: T3, 重组人ROR1蛋白 (recombinant human ROR1 protein, ACROBiosystems RO1-H522y) (human, UniProt Q01973 30-403); experiment: ELISA, recombinant human ROR1 coated at 1 μg/mL, G3 titrated from 0.6 μg/ml
T3 construct: Bought protein

[4] = molecular target: T4, 人ROR1蛋白卷曲(Frizzled)域 (recombinant ROR1 Frizzled domain, ACROBiosystems RO1-H5222) (human, UniProt Q01973 165-305); experiment: ELISA, recombinant ROR1 Frizzled domain coated at 1 μg/mL, G3 titrated from 20 μg/ml
T4 construct: domain: 卷曲(Frizzled)域; Bought domain protein; also called 卷曲结构域; Frizzled结构域

Measured: binding result

T3 sequence (Q01973 30-403 limits assumed): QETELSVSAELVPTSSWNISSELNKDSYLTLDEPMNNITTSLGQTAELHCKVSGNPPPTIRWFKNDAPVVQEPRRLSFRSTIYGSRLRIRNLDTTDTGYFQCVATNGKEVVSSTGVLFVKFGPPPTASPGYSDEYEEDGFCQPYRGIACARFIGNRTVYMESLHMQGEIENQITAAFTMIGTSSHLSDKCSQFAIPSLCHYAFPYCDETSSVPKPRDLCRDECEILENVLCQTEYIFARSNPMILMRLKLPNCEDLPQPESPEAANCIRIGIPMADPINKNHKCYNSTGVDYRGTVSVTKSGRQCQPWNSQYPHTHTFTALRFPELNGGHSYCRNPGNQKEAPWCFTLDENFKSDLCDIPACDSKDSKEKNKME
T4 sequence (Q01973 165-305 limits assumed): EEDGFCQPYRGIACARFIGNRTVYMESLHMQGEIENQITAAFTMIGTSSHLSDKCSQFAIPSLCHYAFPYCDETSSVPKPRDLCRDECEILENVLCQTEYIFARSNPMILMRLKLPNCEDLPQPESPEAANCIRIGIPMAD
T2 sequence (Q01973 30-937): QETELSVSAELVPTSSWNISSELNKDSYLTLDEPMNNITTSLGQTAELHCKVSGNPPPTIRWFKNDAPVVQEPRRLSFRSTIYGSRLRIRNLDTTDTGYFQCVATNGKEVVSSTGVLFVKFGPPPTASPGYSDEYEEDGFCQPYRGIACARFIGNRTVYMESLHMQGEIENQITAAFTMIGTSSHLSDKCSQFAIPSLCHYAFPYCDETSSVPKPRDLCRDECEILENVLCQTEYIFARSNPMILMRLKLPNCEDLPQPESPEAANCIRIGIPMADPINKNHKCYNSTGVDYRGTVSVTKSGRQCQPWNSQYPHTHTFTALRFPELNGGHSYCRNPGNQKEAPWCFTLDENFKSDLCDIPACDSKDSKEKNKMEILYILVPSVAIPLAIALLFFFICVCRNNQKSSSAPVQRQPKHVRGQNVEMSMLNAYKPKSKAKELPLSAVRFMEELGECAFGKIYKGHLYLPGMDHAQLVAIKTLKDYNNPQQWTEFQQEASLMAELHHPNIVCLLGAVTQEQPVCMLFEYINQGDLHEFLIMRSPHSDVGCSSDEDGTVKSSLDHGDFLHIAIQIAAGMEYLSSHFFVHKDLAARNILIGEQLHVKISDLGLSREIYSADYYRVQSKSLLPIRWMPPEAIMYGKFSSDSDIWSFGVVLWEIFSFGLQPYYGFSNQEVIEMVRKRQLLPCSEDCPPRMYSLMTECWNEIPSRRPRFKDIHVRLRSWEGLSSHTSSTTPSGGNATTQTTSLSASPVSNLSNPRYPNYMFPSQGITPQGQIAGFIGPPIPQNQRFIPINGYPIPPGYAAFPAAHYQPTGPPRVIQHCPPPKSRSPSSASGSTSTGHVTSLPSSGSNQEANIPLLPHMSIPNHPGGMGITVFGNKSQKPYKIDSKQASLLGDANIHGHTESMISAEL
T1 sequence (Q9Z139 30-403 limits assumed): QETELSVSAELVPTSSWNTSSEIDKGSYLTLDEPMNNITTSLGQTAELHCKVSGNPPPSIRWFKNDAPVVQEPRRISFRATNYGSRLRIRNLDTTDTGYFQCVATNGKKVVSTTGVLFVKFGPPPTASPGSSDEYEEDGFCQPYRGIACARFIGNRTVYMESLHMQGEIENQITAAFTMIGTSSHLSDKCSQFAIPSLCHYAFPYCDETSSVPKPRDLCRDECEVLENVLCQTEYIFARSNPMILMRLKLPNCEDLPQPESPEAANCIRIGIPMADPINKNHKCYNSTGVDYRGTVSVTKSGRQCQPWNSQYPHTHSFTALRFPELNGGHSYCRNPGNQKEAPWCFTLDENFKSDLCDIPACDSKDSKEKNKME

B1: 抗ROR1的全人源单克隆抗体G3 (antibody, human IgG1, kappa, V domains shown)
VH: QVQLQQWGAGLLKPSETLSLTCAVYGGSFSGYYWSWIRQPPGKGLEWIGEINHSGSTSYNPSLKSRVTISVDTSKNQFSLKLSSVTAADTAVYYCARGHSSGWYRRYFDLWGRGTLVTVSS
VL: IVLTQSPATLSLSPGERATLSCRASQSVSSYLAWYQQKPGQAPRLLIYDASNRATGIPAKFSGSGSGTDFTLTISSLEPEDFAVYYCQQRSNWPPTFGGGTKVEIKR
notes: Full-length fully human IgG1/kappa, expressed in Expi-CHO-S and purified on Protein A (150 kDa); also called G3单克隆抗体; 抗人ROR1抗体G3
binds: all assays above
